Consider one substance from US20200369772A1 (ABBA THERAPEUTICS, published 2020).

For orientation: pEC50 means −log10 of the EC50, conventionally taken in molar units. Lower therefore signals a high EC50. As a reminder, the pIC50 is the negative decadic logarithm of the IC50, by convention in mol/L.

Assay [1] deals with endogenous PD-L2 (human) (UniProt Q9BQ51). Nature of the assay: FACS, NCI-H226 cells. (In flow cytometry, cells or beads pass a laser one at a time.)
The target is the same in assay [2]. Nature of the assay: FACS, NCI-H226 cells. This is another data set of the same source.
Assay [3] has as its target PD-L2 (human) (UniProt Q9BQ51). Kind of assay: FACS, CHO-K1 expressing human PD-L2.
For assay [4], the target named is PD-L2 (human) (UniProt Q9BQ51). Kind of assay: FACS blocking of PD-1 binding to CHO-K1/hPD-L2; high antigen concentration.
Assay [5] deals with PD-L2 (human) (UniProt Q9BQ51). The assay is described as above. This is another data set of the same source.
In assay [6] the target is PD-L2 (human) (UniProt Q9BQ51). Nature of the assay: FACS blocking of hPD-L2 binding to HEK293T-hPD-1; low antigen concentration.
For assay [7], the target named is PD-L2 (human) (UniProt Q9BQ51). Kind of assay: blocking of PD-L2 - PD-1 interaction (cell binding); low antigen concentration.

pEC50, pIC50: −log10 of the molar value. Where two headings read alike, the source gives them in different places.

Regarding MIH18, the negative logarithm of the EC50 (pEC50) with endogenous PD-L2 (human) [1] is 8.66; in the assay with endogenous PD-L2 (human) [2], 8.57; with PD-L2 (human) [3], 8.80. The pIC50 was 8.62 with PD-L2 (human) [4], 8.75 with PD-L2 (human) [5], 9.98 with PD-L2 (human) [6] and 10.17 in the assay with PD-L2 (human) [7].
